Assay results taken from US20250049939A1, “NOVEL FLT3 ANTIBODIES AND ANTIBODY-DRUG-CONJUGATES BASED THEREON, THERAPEUTIC METHODS AND USES THEREOF IN COMBINATION WITH TYROSINE KINASE INHIBITORS” (TUBULIS GmbH, priority 2021, published 2025).

T1: human wildtype FLT3 (hFLT3 wt) (Homo sapiens, UniProt P36888)
T1 construct: expressed in transfected cells; host or cells: Ba/F3 cells, retrovirally transduced with MSCV-IRES-YFP (pMIY) vector
T1 sequence (P36888 27-993): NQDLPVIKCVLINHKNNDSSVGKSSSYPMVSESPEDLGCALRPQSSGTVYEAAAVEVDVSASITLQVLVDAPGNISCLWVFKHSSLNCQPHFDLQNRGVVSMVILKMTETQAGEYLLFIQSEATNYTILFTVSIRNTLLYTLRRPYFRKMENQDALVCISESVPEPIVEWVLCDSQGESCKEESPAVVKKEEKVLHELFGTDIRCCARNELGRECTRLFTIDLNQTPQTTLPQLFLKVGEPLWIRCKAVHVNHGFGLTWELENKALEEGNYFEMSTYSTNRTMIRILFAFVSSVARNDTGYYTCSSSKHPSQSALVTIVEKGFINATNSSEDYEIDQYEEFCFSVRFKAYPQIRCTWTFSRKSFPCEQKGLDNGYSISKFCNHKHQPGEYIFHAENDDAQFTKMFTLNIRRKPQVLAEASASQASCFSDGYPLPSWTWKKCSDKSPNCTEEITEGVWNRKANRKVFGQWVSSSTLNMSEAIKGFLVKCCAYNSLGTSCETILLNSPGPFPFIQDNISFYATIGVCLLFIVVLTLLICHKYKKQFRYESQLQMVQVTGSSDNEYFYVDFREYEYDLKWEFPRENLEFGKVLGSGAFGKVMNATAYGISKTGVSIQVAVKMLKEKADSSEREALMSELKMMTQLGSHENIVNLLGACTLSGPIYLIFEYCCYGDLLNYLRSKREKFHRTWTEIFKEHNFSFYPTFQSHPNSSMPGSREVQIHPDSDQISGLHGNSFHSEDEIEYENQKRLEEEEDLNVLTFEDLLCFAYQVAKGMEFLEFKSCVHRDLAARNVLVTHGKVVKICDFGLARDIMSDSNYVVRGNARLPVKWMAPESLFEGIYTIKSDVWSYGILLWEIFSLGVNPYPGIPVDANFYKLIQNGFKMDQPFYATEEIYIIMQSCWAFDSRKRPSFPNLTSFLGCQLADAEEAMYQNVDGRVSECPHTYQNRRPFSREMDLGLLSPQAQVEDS


Experiments:
[1] = tested on: MOLM-13 (FLT3 positive) cells; experiment: Temperature induced internalization in MOLM-13, flow cytometry; assay type: cell-based, human; settings: 30 min at 37° C. compared to 4° C.
Description: (§1) For antibody binding studies, cells were stained on ice with primary mouse, rat or human anti-FLT3 antibodies (in house) and secondary antibody Goat F(ab′)2 Anti-Human Ig-PE (2012-09), Goat Anti-Mouse IgG (H+L)-PE (1032-09) or Goat Anti-Rat IgG (H+L)-PE (3052-09) purchased from Southern Biotech. For internalization experiments, cells incubated with anti-FLT3 antibodies were washed and incubated for 30 min at 4° C. or 37° C. followed by staining with secondary antibody.

cynomolgus monkey FLT3 = experiment: Cell surface binding to Ba/F3 cynoFLT3, flow cytometry
Description: as §1
Murine FLT3 (OMu21985D, Genescript), human CD64 (RC207487), CD32 (RC205786) and CD16 (RC206429), were purchased from Origene. Cynomolgues monkey FLT3 gene was synthesized from XM_015439107.1 by Eurofins. The constructs were cloned into retroviral expression vector MSCV-IRES-YFP (pMIY) using the In-Fusion HD Cloning Plus Kit (Takara Bio, Saint-Germain-en-Laye, France). All FLT3 point mutations were generated using the QuikChange II XL Site-Directed Mutagenesis Kit (Agilent Technologies, Santa Clara, CA, USA) and correct sequence was confirmed by Sanger sequencing. MSCV-IRES-YFP vectors with inserted human wildtype FLT3 and ITD (w51 and NPOS) mutated FLT3 has been described before (e.g., Opatz S, Polzer H, Herold T, et al. Exome sequencing identifies recurring FLT3 N676K mutations in core-binding factor leukemia. Blood. 2013; 122 (10): 1761-1769. doi: 10.1182/blood-2013-01-476473).
(§2) For FLT3 expression analysis, cells were stained on ice with primary mouse anti-FLT3-AF647 antibodies for 30 min. For antibody binding studies, cells were stained on ice with chimeric (20D9) or humanized anti-FLT3 antibodies (in house) or IgG1 control with or without Leu234Ala/Leu235Ala (LALA)-mutation in the Fc region and secondary antibody goat F(ab′)2 Anti-Human IgG-AF647 (2042-31) purchased from Southern Biotech for 30 min, respectively. Binding and expression were subsequently measured at the flow cytometer (BD FACSCanto II) and the results were evaluated with FlowJo version 10.8.1.

[2] = target: T1, human wildtype FLT3 (hFLT3 wt); experiment: Cell surface binding to Ba/F3 hFLT3 wt, flow cytometry
Description: as §1, §2

Binding to Ba/F3-FLT3 cell line by flow cytometry [2]	Molecule	Internalization in MOLM-13 [1] [%]	Cross reactivity for cyno (cynomolgus monkey FLT3)	Binding to cynomolgus monkey FLT3 expressing Ba/F3 cell lines (cynomolgus monkey FLT3)
specifically bound	4B12: chimeric anti-FLT3 antibody from rat; VH SEQ ID NO: 9, VL SEQ ID NO: 10 (antibody, V domains shown, Clone 4B12, heavy chain variable region without a signal sequence; Clone 4B12, light chain variable region without a signal seqeunce) VH: QVQLQQSGPGLVQPSQTLSLTCTVSGFSLTSYNVNWVRQPPGKGLEWIGAMWRGGGTDYNPALKSRLSISRDTSKSQVFLKMNRLQTEDTAIYFCTRGFGDYWGQGVMVTVSSA VL: DIQMTQTPLSLSVAIGQSASISCKSSQSLKYSDGKTYLNWVFQSPGQSPKRLIYQVSKLDSGVPDRFSGTGSETDFTLKISRVEAEDLGVYYCCQGSYSPSTFGAGTKLELKR	58	cross-reactive and yes	–
specifically bound	20D9: chimeric (rat variable regions, human IgG1) anti-FLT3 monoclonal antibody; VH SEQ ID NO: 5, VL SEQ ID NO: 6 (antibody, V domains shown, Clone 20D9, heavy chain variable region without a signal seqeunce; Clone 20D9, light chain variable region without a signal seqeunce) VH: DVMLVESGGGLVQPGRSLKLSCVASGFTFNNYWMTWIRQAPGKGLEWIASITKTGGGTYYPDSVKGRFTISRDNAKSTLYLQMNSLRSEDTATYYCTTLQQLGVMDAWGQGASVTVSSA VL: DVQMTQSPSVLSASVGDRITLNCKASQNINKELNWYQQKLGEAPKLLIYNTNNLQTGIPSRFSGSGSGTDYTLTISSLQPEDVATYFCFQHKSWPLTFGSGTKLEIKR	64	cross-reactive and yes	bound
